Reference: the supplement of paper PMC9732359
± gives the uncertainty stated by the source.

Assay: protein stability index of a GFP-peptide fusion (yeast GPS) (PSI 1-4); higher = more stable; sorted into four equal gates, so the index is relative within each strain
Method in brief: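 Each library plasmid carries Cherry plus GFP with a tiled 17-residue yeast protein peptide fused downstream, and the pooled library was carried in yeast. Mid-log cultures in leucine-free medium were sorted into four equal gates by GFP/Cherry ratio. Reads from Illumina sequencing of PCR-amplified plasmids from each gate were assigned to strains by barcodes. Per peptide, the protein stability index was computed as the summed products of gate read frequency and gate number.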

Sequence | protein stability index (doa10∆) | protein stability index (pdr5∆) | protein stability index (san1∆) | protein stability index (ubr1∆)
MMEEIINVVIKASRKSV [ECM29] | 1.76 ± 0.073 | 1.75 ± 0.068 | 2.04 ± 0.21 | 1.53 ± 0.12
MMVNNQTMQLIKNVQDL [SRB6] | 2.84 ± 0.25 | 2.3 ± 0.16 | 1.64 ± 0.13 | 3.03 ± 0.17
LFKNYRFNFISKYFIID [YMR129W/POM152] | 1.97 ± 0.068 | 1.41 ± 0.074 | 1.32 ± 0.1 | 1.42 ± 0.061
TVQLTFLIDVLKIYAQI [YCG1] | 1.58 ± 0.047 | 1.99 ± 0.05 | 1.74 ± 0.059 | 1.7 ± 0.042
SNMQKSLLPYYHLTKAV [RPN3] | 2.02 ± 0.038 | 1.87 ± 0.044 | 1.85 ± 0.062 | 1.92 ± 0.033
LIKMSRSPPRPPSLKII [PRP28] | 2.16 ± 0.062 | 2.3 ± 0.068 | 2.3 ± 0.072 | 1.86 ± 0.052
FDDACNQIWNIALNLAS [SSN2] | 3.01 ± 0.15 | 2.88 ± 0.078 | 2.91 ± 0.2 | 2.62 ± 0.14
RGVTKVGFGESNFTSII [SMC1] | 3.56 ± 0.19 | 3.33 ± 0.11 | 3.09 ± 0.15 | 3.08 ± 0.08
SMENYHLLIKIIRQLSE [SRB8] | 1.71 ± 0.058 | 1.77 ± 0.064 | 2.31 ± 0.11 | 1.63 ± 0.046
MSGSLSRGNGGKKVLNK [POP1] | 1.34 ± 0.15 | 2.48 ± 0.11 | 1.32 ± 0.22 | 2.97 ± 0.11
NNVYFAAGALFVSSGFD [RPN14] | 1.78 ± 0.13 | 2.81 ± 0.15 | 1.92 ± 0.29 | 2.21 ± 0.17
KNQLRDWIRFVSTKTNE [RPL22A] | 2.3 ± 0.046 | 2.22 ± 0.047 | 2.17 ± 0.068 | 2.61 ± 0.04
KNKPELYQIDYLGTKVE [PRE1] | 2.82 ± 0.091 | 2.95 ± 0.1 | 3.09 ± 0.064 | 3.16 ± 0.089
LICPQYGTENKDGEDII [CSL4] | 3.23 ± 0.15 | 3.41 ± 0.13 | 3.12 ± 0.14 | 3.28 ± 0.13
TEKMEEQLDLLSAILDP [MED11] | 3.14 ± 0.087 | 3 ± 0.1 | 3.13 ± 0.12 | 3.4 ± 0.1
YNSRPRSVRIPWYNNPV [PRP8] | 2.34 ± 0.083 | 2.22 ± 0.062 | 1.73 ± 0.088 | 2.49 ± 0.049
ASEYIETLGLKYLGLKP [FAS1] | 3.27 ± 0.095 | 3.35 ± 0.093 | 3.26 ± 0.074 | 3.06 ± 0.089
FSMGHIRSSSVSLVAEA [MED4] | 1.52 ± 0.078 | 1.67 ± 0.057 | 1.31 ± 0.14 | 1.69 ± 0.033
SNEFVPNTSDNNNNSNN [SWI1] | 2.59 ± 0.1 | 2.79 ± 0.11 | 2.71 ± 0.095 | 2.88 ± 0.066
PEYFESPLQSSKSKQSF [YMR129W/POM152] | 2.78 ± 0.12 | 2.8 ± 0.08 | 2.91 ± 0.084 | 2.96 ± 0.076
AMHYSSNIELAFSSVEH [COB] | 1.93 ± 0.058 | 1.9 ± 0.06 | 1.91 ± 0.087 | 2.09 ± 0.082
TAAYARTIGIAVDHRRQ [RPL13A] | 1.58 ± 0.077 | 1.58 ± 0.05 | 1.22 ± 0.088 | 1.77 ± 0.055

Sequence | protein stability index (doa10∆) | protein stability index (pdr5∆) | protein stability index (san1∆) | protein stability index (ubr1∆)
IKTQQHILPEVPPVENF [TAF14] | 2.21 ± 0.1 | 2.42 ± 0.082 | 2.89 ± 0.086 | 2.95 ± 0.073
EKTMVKKNLGRLTRLWI [PRP8] | 2.28 ± 0.13 | 3.07 ± 0.12 | 1.45 ± 0.14 | 1.67 ± 0.2
QLKTGLAAIVSTVIEEF [YGL172W/NUP49] | 2.93 ± 0.094 | 2.79 ± 0.08 | 2.83 ± 0.1 | 3.04 ± 0.076
DDVYRPAAESKIFTPNL [SNF5] | 2.82 ± 0.085 | 3.09 ± 0.11 |  | 3.23 ± 0.19
ANSESGHYQAFIRDELD [UBP6] | 3.31 ± 0.28 | 2.76 ± 0.11 |  | 2.66 ± 0.17
TSTPPPPPAPHNLHPQI [SNF5] | 3.2 ± 0.058 | 3.16 ± 0.048 | 3.08 ± 0.049 | 3.14 ± 0.039
KKVNGTSYKKWSFDLPE [PRP8] | 2.2 ± 0.07 | 2.36 ± 0.084 | 2.25 ± 0.1 | 3.35 ± 0.12
SSNVQQPQQQLGDMENN [RTT102] | 3.21 ± 0.19 | 3.29 ± 0.12 | 3.11 ± 0.088 | 3.21 ± 0.17
TVFFLIRVAETRGGASA [YJL039C/NUP192] | 2.18 ± 0.071 | 2.08 ± 0.074 | 2.76 ± 0.13 | 2.13 ± 0.047
LLKLIEPYVAYGYPSYS [RPL7A] | 2.07 ± 0.05 | 2.22 ± 0.053 | 2.2 ± 0.056 | 2.07 ± 0.042
LLVDIQKYNQIQKQIET [SMC2] | 1.92 ± 0.055 | 1.86 ± 0.05 | 2.2 ± 0.081 | 1.65 ± 0.04
RRREQTTYSVDDYYKEI [ISW2] | 2 ± 0.044 | 2.55 ± 0.035 | 1.91 ± 0.071 | 2.87 ± 0.044
DQVLVKGGEQISQLYSD [YJL041W/NSP1] | 3.18 ± 0.091 | 3.16 ± 0.082 | 3.2 ± 0.061 | 3.16 ± 0.091
KRQFNNSYWLIILLGVL [ITC1] | 2.16 ± 0.066 | 1.6 ± 0.056 | 1.5 ± 0.1 | 1.97 ± 0.04
PIIIYGTENTERPPLLP [YOR098C/NUP1] | 3.13 ± 0.09 | 2.74 ± 0.1 | 2.97 ± 0.06 | 2.94 ± 0.048
EEVEDQINPTRETNDDI [SNF2] | 2.25 ± 0.079 | 1.74 ± 0.082 | 1.45 ± 0.11 | 1.58 ± 0.062
PKTGKVERSEAISKKDL [SEC65] | 3.63 ± 0.16 | 3.46 ± 0.081 | 3.33 ± 0.14 | 3.23 ± 0.073
NMYTSTQKTELEIDNKD [SIR4] | 3.04 ± 0.069 | 3.01 ± 0.081 | 3.04 ± 0.068 | 3.06 ± 0.065
ELQMRSFLKEGDLLNAE [RRP4] | 2.71 ± 0.071 | 3.27 ± 0.11 | 3.07 ± 0.087 | 3.23 ± 0.08
ELVRLLIIDEIHLLHDD [BRR2] | 2.17 ± 0.11 | 1.63 ± 0.075 | 1.5 ± 0.1 | 1.97 ± 0.063
KPTDATGNTTSKSAFSF [YOR098C/NUP1] | 2.04 ± 0.12 | 2.57 ± 0.088 | 2.1 ± 0.12 | 2.46 ± 0.11
